Results from publication PMC10786891, “Massively parallel profiling of RNA-targeting CRISPR-Cas13d”.
Residue numbers refer to the chain shown, from its start. Names and notes keep the numbering of the source.

T1: EsCas13d, nuclease-dead (Eubacterium siraeum, UniProt B0MS50, R295A;H300A;R849A;H854A)
T1 sequence: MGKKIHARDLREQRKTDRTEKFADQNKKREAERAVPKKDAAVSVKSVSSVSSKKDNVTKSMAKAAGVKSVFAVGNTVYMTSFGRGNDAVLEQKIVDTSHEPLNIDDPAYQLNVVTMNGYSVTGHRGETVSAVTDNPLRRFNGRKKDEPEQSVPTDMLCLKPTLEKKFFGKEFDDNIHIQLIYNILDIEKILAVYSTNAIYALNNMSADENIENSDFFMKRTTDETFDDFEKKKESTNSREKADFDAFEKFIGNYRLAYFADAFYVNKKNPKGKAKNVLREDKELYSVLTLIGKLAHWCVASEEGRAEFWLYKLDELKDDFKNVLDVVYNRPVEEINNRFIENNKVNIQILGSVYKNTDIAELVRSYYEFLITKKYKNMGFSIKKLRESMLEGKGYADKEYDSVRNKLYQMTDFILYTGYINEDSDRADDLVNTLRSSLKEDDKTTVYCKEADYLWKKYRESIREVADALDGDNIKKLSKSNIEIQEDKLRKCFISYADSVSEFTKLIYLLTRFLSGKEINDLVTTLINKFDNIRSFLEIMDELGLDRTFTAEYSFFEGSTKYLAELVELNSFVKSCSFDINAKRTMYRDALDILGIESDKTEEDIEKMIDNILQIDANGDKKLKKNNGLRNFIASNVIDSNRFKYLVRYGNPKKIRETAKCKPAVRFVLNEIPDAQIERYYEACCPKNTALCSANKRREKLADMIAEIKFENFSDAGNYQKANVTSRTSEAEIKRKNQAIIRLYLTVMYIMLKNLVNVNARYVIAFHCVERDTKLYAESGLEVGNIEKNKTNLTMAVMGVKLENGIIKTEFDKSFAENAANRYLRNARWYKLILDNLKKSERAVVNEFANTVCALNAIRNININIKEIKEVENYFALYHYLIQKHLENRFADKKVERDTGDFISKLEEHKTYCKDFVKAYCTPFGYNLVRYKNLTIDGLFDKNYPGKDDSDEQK

B1: target 1 MT 5'PFS CAC 3'PFS ACG (mixed)
RNA 1: CACCCGUGCAAAAAUGCAGGGGUCUAAAACUGAGCGGAUAACCUCUCUAUGG
RNA 2: GGGAAUGGAUCCACAUCUACGAAUUCCACCCAUAGAGAGGUUAUCCGCUCAACGAGAUCGGAAGAGCACACGU
B2: target 1 MT 5'PFS CAC 3'PFS ACA (mixed)
RNA 1: B1 RNA 1
RNA 2: B1 RNA 2 with G54A
B3: target 1 MT 5'PFS AGG 3'PFS AUA (mixed)
RNA 1: B1 RNA 1
RNA 2: B1 RNA 2 with C27A, A28G, C29G, C53U, G54A
B4: target 1 MT 5'PFS UGC 3'PFS AGA (mixed)
RNA 1: B1 RNA 1
RNA 2: B1 RNA 2 with C27U, A28G, C53G, G54A
B5: target 1 MT 5'PFS AGG 3'PFS AUU (mixed)
RNA 1: B1 RNA 1
RNA 2: B1 RNA 2 with C27A, A28G, C29G, C53U, G54U
B6: target 1 insU 3' of 18,insG 3' of 16 (mixed)
RNA 1: B1 RNA 1
RNA 2: GGGAAUGGAUCCACAUCUACGAAUUCGUACCAUAUGAGGAGGUUAUCCGCUCACCGAGAUCGGAAGAGCACACGU
B7: target 1 MT 5'PFS CUU 3'PFS AGU (mixed)
RNA 1: B1 RNA 1
RNA 2: B1 RNA 2 with A28U, C29U, C53G, G54U
B8: target 1 MT 5'PFS GAA 3'PFS UUU (mixed)
RNA 1: B1 RNA 1
RNA 2: B1 RNA 2 with C27G, C29A, A52U, C53U, G54U
B9: target 1 MT 5'PFS UCG 3'PFS CAU (mixed)
RNA 1: B1 RNA 1
RNA 2: B1 RNA 2 with C27U, A28C, C29G, A52C, C53A, G54U
B10: target 1 MT 5'PFS ACA 3'PFS UCU (mixed)
RNA 1: B1 RNA 1
RNA 2: B1 RNA 2 with C27A, A28C, C29A, A52U, G54U
B11: target 1 MT 5'PFS GAC 3'PFS ACU (mixed)
RNA 1: B1 RNA 1
RNA 2: B1 RNA 2 with C27G, G54U
B12: target 1 MT 5'PFS UCG 3'PFS CAA (mixed)
RNA 1: B1 RNA 1
RNA 2: B1 RNA 2 with C27U, A28C, C29G, A52C, C53A, G54A
B13: target 1 MT 5'PFS UCG 3'PFS CAC (mixed)
RNA 1: B1 RNA 1
RNA 2: B1 RNA 2 with C27U, A28C, C29G, A52C, C53A, G54C
B14: target 1 MT 5'PFS GAA 3'PFS UUG (mixed)
RNA 1: B1 RNA 1
RNA 2: B1 RNA 2 with C27G, C29A, A52U, C53U
B15: target 1 MT 5'PFS GAA 3'PFS UUA (mixed)
RNA 1: B1 RNA 1
RNA 2: B1 RNA 2 with C27G, C29A, A52U, C53U, G54A
B16: target 1 MT 5'PFS GAA 3'PFS UUC (mixed)
RNA 1: B1 RNA 1
RNA 2: B1 RNA 2 with C27G, C29A, A52U, C53U, G54C
B17: target 1 insU 3' of 17,insA 3' of 5 (mixed)
RNA 1: B1 RNA 1
RNA 2: GGGAAUGGAUCCACAUCUACGAAUUCGUACCAUAGUAGAGGUUAUCCGACUCACCGAGAUCGGAAGAGCACACGU
B18: target 1 MT 5'PFS GAC 3'PFS ACC (mixed)
RNA 1: B1 RNA 1
RNA 2: B1 RNA 2 with C27G, G54C
B19: target 1 MT 5'PFS ACA 3'PFS UCG (mixed)
RNA 1: B1 RNA 1
RNA 2: B1 RNA 2 with C27A, A28C, C29A, A52U
B20: target 1 MT 5'PFS GAC 3'PFS ACA (mixed)
RNA 1: B1 RNA 1
RNA 2: B1 RNA 2 with C27G, G54A
B21: target 1 MT 5'PFS GAC 3'PFS ACG (mixed)
RNA 1: B1 RNA 1
RNA 2: B1 RNA 2 with C27G
B22: target 1 MT 5'PFS GUA 3'PFS ACG (mixed)
RNA 1: B1 RNA 1
RNA 2: B1 RNA 2 with C27G, A28U, C29A
B23: target 1 MT 5'PFS GUA 3'PFS ACA (mixed)
RNA 1: B1 RNA 1
RNA 2: B1 RNA 2 with C27G, A28U, C29A, G54A
B24: target 1 MT 5'PFS GUA 3'PFS ACC (mixed)
RNA 1: B1 RNA 1
RNA 2: B1 RNA 2 with C27G, A28U, C29A, G54C
B25: target 1 MT 5'PFS CAC 3'PFS CAA (mixed)
RNA 1: B1 RNA 1
RNA 2: B1 RNA 2 with A52C, C53A, G54A
B26: target 1 MT 5'PFS GUA 3'PFS ACU (mixed)
RNA 1: B1 RNA 1
RNA 2: B1 RNA 2 with C27G, A28U, C29A, G54U
B27: target 1 MT 5'PFS UCC 3'PFS AAA (mixed)
RNA 1: B1 RNA 1
RNA 2: B1 RNA 2 with C27U, A28C, C53A, G54A
B28: target 1 A18C,C22A (mixed)
RNA 1: B1 RNA 1
RNA 2: B1 RNA 2 with C27G, A28U, C29A, C30A, A34C, A52C
B29: target 1 MT 5'PFS UGU 3'PFS CCG (mixed)
RNA 1: B1 RNA 1
RNA 2: B1 RNA 2 with C27U, A28G, C29U, A52C
B30: target 1 MT 5'PFS UAG 3'PFS UAA (mixed)
RNA 1: B1 RNA 1
RNA 2: B1 RNA 2 with C27U, C29G, A52U, C53A, G54A
B31: target 1 MT 5'PFS AAA 3'PFS UAG (mixed)
RNA 1: B1 RNA 1
RNA 2: B1 RNA 2 with C27A, C29A, A52U, C53A
B32: target 1 MT 5'PFS GAC 3'PFS CAU (mixed)
RNA 1: B1 RNA 1
RNA 2: B1 RNA 2 with C27G, A52C, C53A, G54U
B33: target 1 MT 5'PFS GAC 3'PFS CAC (mixed)
RNA 1: B1 RNA 1
RNA 2: B1 RNA 2 with C27G, A52C, C53A, G54C
B34: target 1 MT 5'PFS GAC 3'PFS CAA (mixed)
RNA 1: B1 RNA 1
RNA 2: B1 RNA 2 with C27G, A52C, C53A, G54A
B35: target 1 MT 5'PFS ACC 3'PFS UUG (mixed)
RNA 1: B1 RNA 1
RNA 2: B1 RNA 2 with C27A, A28C, A52U, C53U
B36: target 1 MT 5'PFS CCU 3'PFS UCA (mixed)
RNA 1: B1 RNA 1
RNA 2: B1 RNA 2 with A28C, C29U, A52U, G54A
B37: target 1 MT 5'PFS UCC 3'PFS UGA (mixed)
RNA 1: B1 RNA 1
RNA 2: B1 RNA 2 with C27U, A28C, A52U, C53G, G54A
B38: target 1 MT 5'PFS UCC 3'PFS UGC (mixed)
RNA 1: B1 RNA 1
RNA 2: B1 RNA 2 with C27U, A28C, A52U, C53G, G54C
B39: target 1 U3G,G5C (mixed)
RNA 1: B1 RNA 1
RNA 2: B1 RNA 2 with C27G, A28U, C29A, G47C, U49G, A52C
B40: target 1 MT 5'PFS UAA 3'PFS UCA (mixed)
RNA 1: B1 RNA 1
RNA 2: B1 RNA 2 with C27U, C29A, A52U, G54A

target: T1, EsCas13d, nuclease-dead; experiment: crRNA (strand 1, pre-loaded); Mg2+; 40 mM Tris-HCl pH 7.5, 150 mM NaCl, 6 mM MgCl2, 1 mM DTT, 0.1% Tween-20, 0.2 mg/ml BSA; 25 C; 10 min per concentration, then washed; details: tags: His6-TwinStrep-SUMO cleaved; N-terminal SNAP kept (SNAP-Surface 488); label: 3' end held by stalled T7 RNA polymerase

Binder	Kd
B1	~22 nM
B2	~45.5 nM
B3	26.5 ± 8.5 nM
B4	~23 nM
B5	26.5 ± 7 nM
B6	73 ± 31 nM
B7	48 ± 12.5 nM
B8	15.3 ± 2.75 nM
B9	~80 nM
B10	7.4 ± 2.8 nM
B11	14 ± 5 nM
B12	~44 nM
B13	~43.5 nM
B14	12.8 ± 2.6 nM
B15	16 ± 2.15 nM
B16	51 ± 21 nM
B17	19 ± 4 nM
B18	75.5 ± 37.5 nM
B19	7.7 ± 1.55 nM
B20	~46 nM

Binder	Kd
B21	16.7 ± 3.95 nM
B22	11 ± 0.92 nM
B23	17.6 ± 1.45 nM
B24	7.95 ± 0.8 nM
B25	12 ± 6 nM
B26	10.6 ± 0.75 nM
B27	~23.5 nM
B28	67 ± 13 nM
B29	34.5 ± 13.5 nM
B30	21.4 ± 4.8 nM
B31	12.9 ± 2.25 nM
B32	21.5 ± 8 nM
B33	61 ± 21.5 nM
B34	25.5 ± 8.5 nM
B35	7.35 ± 3.35 nM
B36	26.5 ± 10.5 nM
B37	~29 nM
B38	~12.5 nM
B39	16.7 ± 1.1 nM
B40	32 ± 9.5 nM
